Our source for the Kd and fold of the reported KD of monomeric RBD values is patent publication US11547673.

pKd: −log10 of the molar value.

Broadly, the pKd is the negative decadic logarithm of the Kd, by convention in mol/L. Read a low pKd as a large Kd.

Test [1] concerns the target human ACE2 peptidase domain (amino acids 1-615 of human ACE2 with C-terminal His-10 and Avi tags) (human) (UniProt Q9BYF1).
Test [2] shares this target. The test can be described thus: biolayer interferometry; the reference KD of monomeric RBD is a literature value.

Sequence of UniProt Q9BYF1 (Q9BYF1 18-615 limits assumed): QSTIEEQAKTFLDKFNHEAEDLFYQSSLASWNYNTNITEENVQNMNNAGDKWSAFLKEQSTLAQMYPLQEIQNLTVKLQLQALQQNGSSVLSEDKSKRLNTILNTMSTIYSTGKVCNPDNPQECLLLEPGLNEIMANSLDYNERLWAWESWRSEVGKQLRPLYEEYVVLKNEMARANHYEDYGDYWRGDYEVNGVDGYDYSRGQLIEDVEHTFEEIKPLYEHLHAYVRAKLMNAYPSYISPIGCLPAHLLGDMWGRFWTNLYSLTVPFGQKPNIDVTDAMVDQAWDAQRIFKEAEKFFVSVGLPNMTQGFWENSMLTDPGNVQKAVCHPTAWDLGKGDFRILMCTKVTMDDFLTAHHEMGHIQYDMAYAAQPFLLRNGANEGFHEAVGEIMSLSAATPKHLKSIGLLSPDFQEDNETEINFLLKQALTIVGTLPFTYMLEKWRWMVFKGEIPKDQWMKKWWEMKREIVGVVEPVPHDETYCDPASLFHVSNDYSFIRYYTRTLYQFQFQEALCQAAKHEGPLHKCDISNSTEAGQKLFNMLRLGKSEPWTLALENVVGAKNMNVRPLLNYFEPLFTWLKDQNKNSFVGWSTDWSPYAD

The substance “trimerised SARS-CoV-2 S receptor-binding domain fused to the T4 fibritin foldon trimerisation domain (ligand; other documents disagree on this pair)” had a pKd in test [1] of 11.30. This substance also registered a fold of the reported KD of monomeric RBD in test [2] of 1000 fold.
